Experimental data as given in patent US20160215026A1.

What was measured:
[1] = molecular target: human immunoglobulin G drug separated from human plasma (human); assay: SPR, Biacore 3000, human IgG immobilized on CM5, peptide as analyte, 25 C, pH 7.4, 1:1 model
[2] = molecular target: human immunoglobulin G drug separated from human plasma (human); assay: SPR, Biacore 3000, human IgG immobilized; reference C-G29A/S33E.1d

| Ka [1] [M⁻¹] | koff [1] [s⁻¹] | kon [1] [M⁻¹ s⁻¹] | affinity constant KA relative to C-G29A/S33E.1d [2] [fold] | Substance |
| --- | --- | --- | --- | --- |
| 3.9e+07 | 0.00709 | 276000 | – | C-G29A/S33E/K7E/A46E.1d (designed binder) |
| 5.7e+06 | 0.00519 | 29000 | 0.1 | C-G29A/S33E/K7E/H18D/V40D/A46D/Q55E.1d (designed binder) |
